This note sets out measurements from paper PMC9271601.

For orientation: stoichiometry N means the number of molecules, sites or subunits per partner or assembly.

The target of the experiment is H7N9 A/Shanghai/2/2013 hemagglutinin trimer, wild type (influenza A virus A/Shanghai/02/2013 (H7N9)) (UniProt R4NN21). Nature of the experiment: cryo-EM structure.

As for “H7N9 A/Shanghai/2/2013 hemagglutinin trimer, wild type (from UniProt R4NN21) (natural protein)”, the stoichiometry N worked out at 3.
